B1: proMdGLU W-box 2 probe (dsDNA)
DNA 1: ATCACAAATAAAATTGATATTTGACCAACTACATGCCACGATCACA
DNA 2: TGTGATCGTGGCATGTAGTTGGTCAAATATCAATTTTATTTGTGAT
B2: proMdGLU W-box 3 probe (dsDNA)
DNA 1: CTTTCCCCCCTATAAATACTTTGACCACCAACTCCCCAATCCTCCA
DNA 2: TGGAGGATTGGGGAGTTGGTGGTCAAAGTATTTATAGGGGGGAAAG

How the values were obtained:
MdWRKY40 [1] = target: T1, MdWRKY40 (Malus domestica, UniProt A0A7S5ATZ6 1-302); assay: EMSA; cold probe weakens binding; EMSA: binding buffer not specified, 24 °C, 30 min; salt and pH not stated; settings: protein: recombinant; tags: His tag, pET-32a(+) fusion; blunt
T1 sequence (A0A7S5ATZ6 entry or part of it): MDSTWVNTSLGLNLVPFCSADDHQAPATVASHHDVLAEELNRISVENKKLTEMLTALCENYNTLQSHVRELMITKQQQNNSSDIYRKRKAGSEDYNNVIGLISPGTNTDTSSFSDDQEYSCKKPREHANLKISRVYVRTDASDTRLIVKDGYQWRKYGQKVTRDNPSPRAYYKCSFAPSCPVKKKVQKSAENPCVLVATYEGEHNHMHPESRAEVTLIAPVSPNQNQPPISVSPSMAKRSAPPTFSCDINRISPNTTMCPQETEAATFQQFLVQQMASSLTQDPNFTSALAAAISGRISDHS

MdWRKY40 [2] = target: T1, MdWRKY40; assay: EMSA; text says not bound; the only printed mutant is of W-box 3, so numbering of 2 and 3 is uncertain; EMSA: binding buffer not specified, 24 °C, 30 min; salt and pH not stated; settings: protein: recombinant; tags: His tag, pET-32a(+) fusion; blunt

| Binder | binding result (MdWRKY40 [1]) | binding result (MdWRKY40 [2]) |
| --- | --- | --- |
| B1 | binds |  |
| B2 |  | no binding |

— article PMC9344649, “Involvement of MdWRKY40 in the defense of mycorrhizal apple against fusarium solani”
